Source: US20240392020A1 (JIANGSU HENGRUI PHARMACEUTICALS, published 2024)
Read-outs that look alike come from different tables or passages of the source.

T1: CEA on MKN45 cells (UniProt P06731 35-685)
T1 construct: whole, on cells
T1 sequence (looked up): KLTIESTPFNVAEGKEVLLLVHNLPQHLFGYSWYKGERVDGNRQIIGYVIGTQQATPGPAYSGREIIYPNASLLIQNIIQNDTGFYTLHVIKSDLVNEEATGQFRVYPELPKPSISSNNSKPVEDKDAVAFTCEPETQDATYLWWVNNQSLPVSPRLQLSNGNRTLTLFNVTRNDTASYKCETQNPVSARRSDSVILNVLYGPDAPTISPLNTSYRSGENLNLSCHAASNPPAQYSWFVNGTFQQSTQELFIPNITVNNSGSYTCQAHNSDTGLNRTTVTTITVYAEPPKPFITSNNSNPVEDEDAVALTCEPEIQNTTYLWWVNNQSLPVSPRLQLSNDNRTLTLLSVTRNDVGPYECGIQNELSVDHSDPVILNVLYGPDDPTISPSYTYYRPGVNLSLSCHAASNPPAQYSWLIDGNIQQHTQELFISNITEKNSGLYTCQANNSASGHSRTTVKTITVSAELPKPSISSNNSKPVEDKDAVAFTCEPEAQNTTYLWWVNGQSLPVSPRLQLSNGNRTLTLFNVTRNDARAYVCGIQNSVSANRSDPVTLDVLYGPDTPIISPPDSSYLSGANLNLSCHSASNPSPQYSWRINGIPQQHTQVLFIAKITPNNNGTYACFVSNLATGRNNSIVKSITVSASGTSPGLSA


Legend:
[1] = target: T2, hIL-5 (human, UniProt P05113 20-134); test: ELISA
T2 construct: bought
Experimental: (§1) For an antibody targeting a soluble protein, the binding activity of the antibody against the soluble protein was detected by ELISA. […] After the blocking was completed, the blocking solution was discarded; and the plate was washed 3 times with a PBST buffer (pH 7.4, PBS containing 0.1% tween-20). 100 μL of the antibody solution diluted in a gradient was added to each well, and the mixture was incubated at 37° C. for 1 h. After the incubation was completed, the plate was washed 3 times with PBST. […] The plate was washed 3 times with PBST. […] The reaction was stopped by adding 50 μL of 1 M H₂SO₄ to each well. The absorbance values at 450 nm were read on a microplate reader, the binding curves of the antibodies to an antigen were fitted with software, and the EC₅₀ values were calculated.

[2] = target: T1, CEA on MKN45 cells; test: FACS, MKN45 cells
[3] = target: T3, hBAFF (human, UniProt Q9Y275 134-285); test: ELISA
T3 construct: bought
Experimental: as §1

[4] = target: T2, hIL-5; test: ELISA; remark: listed apart in the source
Experimental: as §1

Row | EC50 [2] [nM] | EC50 [3] [nM] | Binder | further results
1 |  |  | R18 (antibody) heavy: not shown light: DIQMTQSPSSLSASVGDRVTITCLASEGISSYLAWYQQKPGKAPKLLIYGANSLQTGVPSRFSGSGSATDYTLTISSLQPEDFATYYCQQSYKFPNTFGQGTKVEVKDQPQFSGAPRFLTRPKAFVVSVGKDATLSSQIVGNPTPQVSWEKDQQPVAAGARFRLAQDGDLYRLTILDLALGDSGQYVSRARNAIGEAFACVGLQVDAEA | EC50 [1]: 0.44 nM
2 |  |  | R21 (antibody) heavy: not shown light: DIQMTQSPSSLSASVGDRVTITCLASEGISSYLAWYQQKPGKAPKLLIYGANSLQTGVPSRFSGSGSATDYTLTISSLQPEDFATYYCQQSYKFPNTFGQGTKVEVKDQPQFSGAPRFRTRPKAFVVSVGKDATLSSQIVGNPTPQVSWEKDQQPVAAGARFRLAQDGDLYRLKILDLALGDSGQYVSRARNAIGEAFACVGLQVDAEA | EC50 [1]: 0.37 nM
3 |  |  | R22 (antibody) heavy: not shown light: DIQMTQSPSSLSASVGDRVTITCLASEGISSYLAWYQQKPGKAPKLLIYGANSLQTGVPSRFSGSGSATDYTLTISSLQPEDFATYYCQQSYKFPNTFGQGTKVEVKDQPQFSGAPRFRTRPKAFVVSVGKDATLSSQIVGNPTPQVSWEKDQQPVAAGARFRLAQDGDLYRLHILDLALGDSGQYVSRARNAIGEAFACVGLQVDAEA | EC50 [1]: 0.39 nM
4 |  |  | R20 (antibody) heavy: not shown light: DIQMTQSPSSLSASVGDRVTITCLASEGISSYLAWYQQKPGKAPKLLIYGANSLQTGVPSRFSGSGSATDYTLTISSLQPEDFATYYCQQSYKFPNTFGQGTKVEVKDQPQFSGAPRFKTRPKAFVVSVGKDATLSSQIVGNPTPQVSWEKDQQPVAAGARFRLAQDGDLYRLHILDLALGDSGQYVSRARNAIGEAFACVGLQVDAEA | EC50 [1]: 0.39 nM
5 | 5.24 |  | N5 (antibody) heavy: not shown light: EIVLTQSPGTLSLSPGERATLSCRASQNINNRFLAWYQQRPGQAPRLLIYAASSRATGVPDRFSGSGSGTDFTLTISRLEAEDFAMYHCQQYGSFPRTFGQGTMVDIKGIPPKIEALPSDISIDEGKVLTVACAFTGEPTPEVTWSCGGRKIHSQEQGRFHIENTDDLTTLIIMDVQKQDGGLYTLSLGNEFGSDSATVNIHIRSI | 
6 | 17.7 |  | C1 (antibody) heavy: not shown light: DIVMTQSPDSLAVSLGERATINCRASESVSIIGTNLIHWYQQKPGQPPKLLIYHASNLETGVPDRFSGSGSGTDFTLTISSLQAEDVAVYYCLQSRKIPYTFGGGTKVEIKGIPPKIEALPSDISIDEGKVLTVACAFTGEPTPEVTWSCGGRKIHSQEQGRFHIENTDDLTTLIIMDVQKQDGGLYTLSLGNEFGSDSATVNIHIRSI | 
7 | 16.5 |  | C2 (antibody) heavy: not shown light: DIVMTQSPDSLAVSLGERATINCRASESVSIIGTNLIHWYQQKPGQPPKLLIYHASNLETGVPDRFSGSGSGTDFTLTISSLQAEDVAVYYCLQSRKIPYTFGGGTKVEIKGIPPKIEALPSDISIDEGKVLTVACAFTGEPTPEVTWSCGGRKIHSQEQGRFHIENTDDLTTLIIMDVQKQDGGLYTLSLGNEFGSDSATVNIHIRSI | 
8 |  | 0.19 | B2 (antibody) heavy: not shown light: SSELTQDPAVSVALGQTVRVTCQGDSLRSYYASWYQQKPGQAPVLVIYGKNNRPSGIPDRFSGSSSGNTASLTITGAQAEDEADYYCSSRDSSGNHWVFGGGTELTVLSGAPRFLTRPKSYTVSVGKDASLSSQIVGNPTPQVSWEKDQQPVAAGARFRLAQDGDLYRLKILDLALGDSGQYVSRARNAIGEAFACVGLQVDAEA | 
9 | 0.82 |  | N0 (antibody, human IgG1, kappa) heavy: not shown light: EIVLTQSPGTLSLSPGERATLSCRASQNINNRFLAWYQQRPGQAPRLLIYAASSRATGVPDRFSGSGSGTDFTLTISRLEAEDFAMYHCQQYGSFPRTFGQGTMVDIKRTVAAPSVFIFPPSDEQLKSGTASVVCLLNNFYPREAKVQWKVDNALQSGNSQESVTEQDSKDSTYSLSSTLTLSKADYEKHKVYACEVTHQGLSSPVTKSFNRGEC | 
10 |  | 0.35 | B7 (antibody) heavy: not shown light: SSELTQDPAVSVALGQTVRVTCQGDSLRSYYASWYQQKPGQAPVLVIYGKNNRPSGIPDRFSGSSSGNTASLTITGAQAEDEADYYCSSRDSSGNHWVFGGGTELTVLSGAPRFLTRPLAFVVSVGKDATLSSQIVGNPTPQVSWEKDQLPVTAGARFRLAQDGDLYRLKILDLTLSDSGQYVSRARNAIGEAFACVGLEVGAEA | 
11 |  | 0.25 | B4 (antibody) heavy: not shown light: SSELTQDPAVSVALGQTVRVTCQGDSLRSYYASWYQQKPGQAPVLVIYGKNNRPSGIPDRFSGSSSGNTASLTITGAQAEDEADYYCSSRDSSGNHWVFGGGTELTVLSGAPRFLTRPLAFVVSVGKDATLSSQIVGNPTPQVSWEKDKQPVTAGARFRLAQDGDLYRLKILDLQLSDSGQYVSRARNAIGEAFACLGLQVDAEA | 
12 |  | 0.19 | B6 (antibody) heavy: not shown light: SSELTQDPAVSVALGQTVRVTCQGDSLRSYYASWYQQKPGQAPVLVIYGKNNRPSGIPDRFSGSSSGNTASLTITGAQAEDEADYYCSSRDSSGNHWVFGGGTELTVLSGAPRFLTRPLAFVVSVGKDATLSSQIVGNPTPQVSWEKDQLPVTAGARFRLAQDGDLYRLKILDLTLSDSGQYVSRARNAIGEAFACVGLEVGAEA | 
13 |  | 0.16 | B8 (antibody) heavy: not shown light: SSELTQDPAVSVALGQTVRVTCQGDSLRSYYASWYQQKPGQAPVLVIYGKNNRPSGIPDRFSGSSSGNTASLTITGAQAEDEADYYCSSRDSSGNHWVFGGGTELTVLSGAPRFLTRPLSYVVSVGKDASLSSQIVGNPTPQVSWEKDQLPVTAGARFRLAQDGDLYRLKILDLQLSDSGQYVSRARNAIGEAFACVGLEVGAEA | 
14 |  | 0.28 | B1 (antibody) heavy: not shown light: SSELTQDPAVSVALGQTVRVTCQGDSLRSYYASWYQQKPGQAPVLVIYGKNNRPSGIPDRFSGSSSGNTASLTITGAQAEDEADYYCSSRDSSGNHWVFGGGTELTVLSGAPRFLTRPLAFVVSVGKDATLSSQIVGNPTPQVSWEKDQQPVAAGARFRLAQDGDLYRLKILDLALGDSGQYVSRARNAIGEAFACVGLQVDAEA | 
15 |  | 0.29 | B5 (antibody) heavy: not shown light: SSELTQDPAVSVALGQTVRVTCQGDSLRSYYASWYQQKPGQAPVLVIYGKNNRPSGIPDRFSGSSSGNTASLTITGAQAEDEADYYCSSRDSSGNHWVFGGGTELTVLSGAPRFLTRPLAFVVSVGKDATLSSQIVGNPTPQVSWEKDQLPVTAGARFRLAQDGDLYRLKILDLTLSDSGQYVSRARNAIGEAFACVGLEVGAEA | 
16 |  |  | R10 (antibody) heavy: not shown light: DIQMTQSPSSLSASVGDRVTITCLASEGISSYLAWYQQKPGKAPKLLIYGANSLQTGVPSRFSGSGSATDYTLTISSLQPEDFATYYCQQSYKFPNTFGQGTKVEVKSGAPRFLTRPKAFVVSVGKDATLSSQIVGNPTPQVSWEKDQQPVAAGARFRLAQDGDLYRLTILDLALGDSGQYVSRARNAIGEAFACVGLQVDAEA | EC50 [4]: 3.2 nM; EC50 [1]: 0.37 nM
17 | 5.81 |  | C0 (antibody, human IgG1, kappa) heavy: not shown light: DIVMTQSPDSLAVSLGERATINCRASESVSIIGTNLIHWYQQKPGQPPKLLIYHASNLETGVPDRFSGSGSGTDFTLTISSLQAEDVAVYYCLQSRKIPYTFGGGTKVEIKRTVAAPSVFIFPPSDEQLKSGTASVVCLLNNFYPREAKVQWKVDNALQSGNSQESVTEQDSKDSTYSLSSTLTLSKADYEKHKVYACEVTHQGLSSPVTKSFNRGEC | 
18 | 766 |  | N2 (antibody) heavy: not shown light: EIVLTQSPGTLSLSPGERATLSCRASQNINNRFLAWYQQRPGQAPRLLIYAASSRATGVPDRFSGSGSGTDFTLTISRLEAEDFAMYHCQQYGSFPRTFGQGTMVDIKFDPVYKVKPNPPHNLSVINSEELSSILKLTWTNPSIKSVIILKYNIQYRTKDASTWSQIPPEDTASTRSSFTVQDLKPFTEYVFRIRCMKEDGKGYWSDWSEEASGIT | 
19 |  | 0.5 | B3 (antibody) heavy: not shown light: SSELTQDPAVSVALGQTVRVTCQGDSLRSYYASWYQQKPGQAPVLVIYGKNNRPSGIPDRFSGSSSGNTASLTITGAQAEDEADYYCSSRDSSGNHWVFGGGTELTVLSEAPRFLTRPLAFVVSEGKDATLSSQIVGDPPPEVTWEKDQQPITAGARFRLAQDGDVYRLEILDLQLSDSGQYVSRARNAIGEAFACVGLQVDAEG | 
20 | 1230 |  | N1 (antibody) heavy: not shown light: EIVLTQSPGTLSLSPGERATLSCRASQNINNRFLAWYQQRPGQAPRLLIYAASSRATGVPDRFSGSGSGTDFTLTISRLEAEDFAMYHCQQYGSFPRTFGQGTMVDIKGILQPDPPANITVTAVARNPRWLSVTWQDPHSWNSSFYRLRFELRYRAERSKTFTTWMVKDLQHHCVIHDAWSGLRHVVQLRAQEEFGQGEWSEWSPEAMGTPW | 
